Measured values published in publication doi:10.1101/2021.03.16.435614.

Target: CTD (C-terminal domain) of SOQ1 (SUPPRESSOR OF QUENCHING1), recombinant (Arabidopsis thaliana)
Experiment: MST

## Trx-like domain of SOQ1 (SUPPRESSOR OF QUENCHING1), recombinant (domain or fragment)
  Kd: 8.76 µM
